{"source": "paper PMC2114792", "about": "(The Journal of Cell Biology, 1987)", "proteins": {"B1": {"name": "chicken hexabrachion protein (myotendinous (M1) antigen) (natural protein, UniProt P10039 34-1808, looked up)", "chain": "ETGLNVTLPEDNQPVVFNHVYNIKLPVGSLCSVDLDTASGDADLKAEIEPVKNYEEHTVNEGNQIVFTHRINIPRRACGCAAAPDIKDLLSRLEELEGLVSSLREQCASGAGCCPNSQTAEGRLDTAPYCSGHGNYSTEICGCVCEPGWKGPNCSEPACPRNCLNRGLCVRGKCICEEGFTGEDCSQAACPSDCNDQGKCVDGVCVCFEGYTGPDCGEELCPHGCGIHGRCVGGRCVCHEGFTGEDCNEPLCPNNCHNRGRCVDNECVCDEGYTGEDCGELICPNDCFDRGRCINGTCFCEEGYTGEDCGELTCPNNCNGNGRCENGLCVCHEGFVGDDCSQKRCPKDCNNRGHCVDGRCVCHEGYLGEDCGELRCPNDCHNRGRCINGQCVCDEGFIGEDCGELRCPNDCHNRGRCVNGQCECHEGFIGEDCGELRCPNDCNSHGRCVNGQCVCDEGYTGEDCGELRCPNDCHNRGRCVEGRCVCDNGFMGEDCGELSCPNDCHQHGRCVDGRCVCHEGFTGEDCRERSCPNDCNNVGRCVEGRCVCEEGYMGIDCSDVSPPTELTVTNVTDKTVNLEWKHENLVNEYLVTYVPTSSGGLDLQFTVPGNQTSATIHELEPGVEYFIRVFAILKNKKSIPVSARVATYLPAPEGLKFKSVRETSVQVEWDPLSISFDGWELVFRNMQKKDDNGDITSSLKRPETSYMQPGLAPGQQYNVSLHIVKNNTRGPGLSRVITTKLDAPSQIEAKDVTDTTALITWSKPLAEIEGIELTYGPKDVPGDRTTIDLSEDENQYSIGNLRPHTEYEVTLISRRGDMESDPAKEVFVTDLDAPRNLKRVSQTDNSITLEWKNSHANIDNYRIKFAPISGGDHTELTVPKGNQATTRATLTGLRPGTEYGIGVTAVRQDRESAPATINAGTDLDNPKDLEVSDPTETTLSLRWRRPVAKFDRYRLTYVSPSGKKNEMEIPVDSTSFILRGLDAGTEYTISLVAEKGRHKSKPTTIKGSTEEEPELGNLSVSETGWDGFQLTWTAADGAYENFVIQVQQSDNPEETWNITVPGGQHSVNVTGLKANTPYNVTLYGVIRGYRTKPLYVETTTGAHPEVGELTVSDITPESFNLSWTTTNGDFDAFTIEIIDSNRLLEPMEFNISGNSRTAHISGLSPSTDFIVYLYGISHGFRTQAISAAATTEAEPEVDNLLVSDATPDGFRLSWTADDGVFDSFVLKIRDTKRKSDPLELIVPGHERTHDITGLKEGTEYEIELYGVSSGRRSQPINSVATTVVGSPKGISFSDITENSATVSWTPPRSRVDSYRVSYVPITGGTPNVVTVDGSKTRTKLVKLVPGVDYNVNIISVKGFEESEPISGILKTALDSPSGLVVMNITDSEALATWQPAIAAVDNYIVSYSSEDEPEVTQMVSGNTVEYDLNGLRPATEYTLRVHAVKDAQKSETLSTQFTTGLDAPKDLSATEVQSETAVITWRPPRAPVTDYLLTYESIDGRVKEVILDPETTSYTLTELSPSTQYTVKLQALSRSMRSKMIQTVFTTTGLLYPYPKDCSQALLNGEVTSGLYTIYLNGDRTQPLQVFCDMAEDGGGWIVFLRRQNGKEDFYRNWKNYVAGFGDPKDEFWIGLENLHKISSQGQYELRVDLRDRGETAYAVYDKFSVGDAKTRYRLRVDGYSGTAGDSMTYHNGRSFSTFDKDNDSAITNCALSYKGAFWYKNCHRVNLMGRYGDNNHSQGVNWFHWKGHEYSIQFAEMKLRPSSFRNLEGRRKRA"}}, "target": "the molecule itself", "assay": "rotary shadowing electron microscopy", "data": [{"protein": "B1", "values": [{"measurement": "stoichiometry N", "value": 6}]}]}
